Data: a protein production outcome set (Wang et al. 2014)

Experiment: label from the status in PepcDB records

| Sequence | protein production |
| --- | --- |
| MSEPRLPERAEWGTFALILACYGAWLAVIFGLAGLSLWLAIAAMGLVAALHSSLTHEALHGHPFRYRWLNEALMALPLTLCIPYNRFRDLHLAHHLDANLTDPYDDPESNYLDPAIWSRLPGWQRRLYALNNTLAGRMVLGPLIGTACFLRDEARGALRGDRAILLAWALHLPGMAGVLWVVSLSPMPIWAFALSAYIGLGLLKIRTFLEHRAHEKSRARTVVIEDRGLLAFLFLNNNYHVVHHMNPGAPWYALPALYRAGKERYLGCNEGYSYRSYGEVFRRYFWRAKDPVPHPLWPKP | failed |
| MASLCSARFLPSPSLDILSTKTKISSDSRSLGCSSSRVFAFSSVHRSSSRRNRNQLQVVSMAPEEEKLTRRNPLDFPIEWERPKPGRRPDIFPKFSPMKTPLPPPMPYDPPEEDEEEEEKKEEEEENPDQEEEEQPEKQQ | failed |
| MANSLRTLFSVSTHGVFLNKRSSYRVRKVFVGMPLRICSEIPRFVSVSCIRSDMCGIMMLGKDVHDLLETSSGGNVEKGFLRWRNGGGMYHRSALIDSSALVEFGAVVHQEAILGAEVHIGSNTVIGSSVKIGPSTKIGNCSIGDLCVIHNGVCIGQDGFGFYVDDNGNMVKKPQTLNVKIGNRVEIGANTCIDRGSWRDTVIGDDTKIDNLVQIGHNVIIGKCCLFCGQVGIAGSAEIGDFVALGGRVAVRDHVSIVSKVRLAANSCVTKNITEPGDYGGFPAQEETITYSVCQTQED | failed |
| SSGGKSAQGPEEGGVCITEALITKRNLTFPEDGELSEKMFHTLDELQTVRLDREGITTIRNLEGLQNLHSLYLQGNKIQQIENLACIPSLRFLSLAGNQIRQVENLLDLPCLQFLDLSENLIETLKLDEFPQSLLILNLSGNSCTNQDGYRELVTEALPLLLDLDGQPVVERWISDEEDEASSDEEFPELSGPFCSERGFLKELEQELSRHREHRQQTALTEHLLRMEMQPTLTDLPLLPGVPMAGDSSPSATPAQGEETVPEAVSSPQASSPTKKPCSLIPRGHQSSFWGRKGARAATAPKASVAEAPSTTKTTAKRSKK | not failed |
| MSRKPLIAGNWKMNLNHYEAIALVQKIAFSLPDKYYDRVDVAVIPPFTDLRSVQTLVDGDKLRLTYGAQDLSPHDSGAYTGDVSGAFLAKLGCSYVVVGHSERRTYHNEDDALVAAKAATALKHGLTPIVCIGEHLDVREAGNHVAHNIEQLRGSLAGLLAEQIGSVVIAYEPVWAIGTGRVASAADAQEVCAAIRKELASLASPRIADTVRVLYGGSVNAKNVGDIVAQDDVDGGLVGGASLDGEHFATLAAIAAGGPLP | not failed |
| MIKYILGIVIFIAIVLVAITIGANNDQIITFNYIVAESQFQLSSLVAILFGLGLILGWLITAFFYIKLKLKNMALARQVKRQTLQINELTTTRDKVV | failed |
| MRNLKLRYCKELNAVAHPQHLLLQPELNGGASDIYFVVADNKIYAVQESGDVRLKVIADLPDIVGVEFLQLDNAICVASGAGEVILVDPQTGATSEGTFCDVGIESMAWSPNQEVVAFVTRTHNVVLMTSTFDVIAEQPLDAELDPDQQFVNVGWGKKETQFHGSEGKQAAKQKESDSTFIRDEQELNQDVSISWRGDGEFFVVSYVAAQLGRTFKVYDSEGKLNHTAEKSANLKDSVVWRPTGNWIAVPQQFPNKSTIALFEKNGLRHRELVLPFDLQEEPVVQLRWSEDSDILAIRTCAKEEQRVYLYTIGNYHWYLKQVLIFEQADPLALLHWDTRCGAEHTLHVLKESGKHLVYRWAFAVDRNNSIVGVIDGKRLLLTDFDEAIVPPPMSKIVLKFETYINAFISHGTSLWVYTCDRKIYLNEHIHTLGKELQKPIMLMPDAELSGLHLANLTHFSPHYLLATHSSAGSTRLLLLSYKDNDNKPGEWFYRVHSSVRINGLVNAVAVAPYAMNEFYVQTVNNGHTYEVSLKADKTLKVERSYVQLHEPADQIDWVIVKGCIWDGYTGALVTLRNQHLLHIDGYRIGEDVTSFCVVTNYLVYTQLNAMHFVQLDDRRQVASRNIERGAKIVTAVARKARVVLQLPRGNLEAICPRVLVLELVGDLLERGKYQKAIEMSRKQRINLNIIFDHDVKRFVSSVGAFLNDINEPQWLCLFLSELQNEDFTKGMYSSNYDASKQTYPSDYRVDQKVEYVCRLLEQQMNRFVSRFRLPLITAYVKLGCLEMALQVIWKEQQEDASLADQLLQHLLYLVDVNDLYNVALGTYDFGLVLFVAQKSQKDPKEFLPYLNDLKALPIDYRKFRIDDHLKRYTSALSHLAACGEQHYEEALEYIRKHGLYTDGLAFYREHIEFQKNIYVAYADHLRAIAKLDNASLMYERGGQLQQALLSAKHTLDWQRVLVLAKKLSEPLDQVAQSLVGPLQQQGRHMEAYELVKEHCQDRKRQFDVLLEGHLYSRAIYEAGLEDDDVSEKIAPALLAYGVQLESSLQADLQLFLDYKQRLLDIRRNQAKSGEGYIDTDVNLKEVDLLSDTTSLHSSQYSGTSRRTGKTFRSSKNRRKHERKLFSLKPGNPFEDIALIDALHNHVTKIAQQQQPVRDTCKALLQLANAADADPLAAALQREFKTLLQAVDAALDEIWTPELRGNGLMADHLTGPNVDYLALQKEQRYALLSPLKRFKPQLIMMDWQHEILQ | failed |
| MAYDGLFTKKMVESLQFLTTGRVHKINQPDNDTILMVVRQNRQNHQLLLSIHPNFSRLQLTTKKYDNPFNPPMFARVFRKHLEGGIIESIKQIGNDRRIEIDIKSKDEIGDTIYRTVILEIMGKHSNLILVDENRKIIEGFKHLTPNTNHYRTVMPGFNYEAPPTQHKINPYDITGAEVLKYIDFNAGNIAKQLLNQFEGFSPLITNEIVSRRQFMTSSTLPEAFDEVMAETKLPPTPIFHKNHETGKEDFYFIKLNQFNDDTVTYDSLNDLLDRFYDARGERERVKQRANDLVRFVQQQLHKYQNKLAKLIEEYEQSKNKDTEQLYGELITANIYRIKQGDKEVTALNYYTNEEVVIPLNPTKSPSANAQYYYKQYNRMKTRERELQHQIQLTKDNIDYFSTIEQQLHHISVHDIDEIRDELAEQGFMKQRKNQTKKKKAQ | not failed |
| MIITKNISLPELYQEWLDLKIMPSNRSDVTKKKYLSRKVTLEKLFGDKPISQIRPSEYQRIMNNYGQRVSRNFLGRLNTGVKQSLQMAIADKVMIEDFTQNVELFSTVKLEHHHHHH | not failed |
| MEVYTTENEQVDVLRRFLAENGKALVVGVVLGVGALVGWRFWQSHQNDSVQAASASYQQVTEQLAEGKAEAIASTEKFTAENKNTYGALASLELARHYVDQKDFAKAVQQLVQAQSQTKDADLLAVVNLRLARVQLQENKADDALKTLDAIKLEGWASQAAEVRGDILASKGDNQAARDAYNKGLSSNPSQAQQALLRMKLNNLSS | failed |
| MTYQQAGRIAVIKRILGWVIFIPSVLSTLISVLKFMYEHSEKKPGIDAVMMDFAHVMIEMMRFNTPFLNFFWYNSPLPDFHHSLNIGFWIIFILVFVGMALQASGARMARQAKFLREGIEDQLILEQAKGADGLTREQLAERIVVPRHTILVQYFPLYVLPVIVIVIGYFFFSLLGFL | failed |
| MASTIQALPQEVVYLITAGEVIDSFAAVVRELVENSLDAGANRIVVYLWPQQWRVRVADNGCGMNLDDLQQAASAHSTSKIRSSADLWKIHSLGFRGEALHSLTTLADVEIISRAPENVGWRVVYGDSGKAVHVEATAIAPGTVVTVSNLFASCAARRQGLPTTAQQMKAVQATIQQIALCHPQTTWQVWQNDRIWFTISPAATAGQLIPQFLPQLRPSDLQEIKLEIPNPENPQLSTNNKPNASALALVVGLPDRCHRHRPDWVRVAINGRMIKLPELEQTILAAFHRTLPRDRYPLCFVHLLISPDQINWNRNPAKTEIYLHDLSYWQEQVTQAINQALRISAANIPESVQTTRVSQLLKAAEEKGNYNFNPRNANPADNTQNYLKAVAQVSNTYIVAEHPGGMWLVEQHIAHERVLYEQLCDNWRLIPVEPPIILYQLSPAQVAQLQRIGLDIDIFGEQLWAVRNLPAMLQQREDCAEAILELSWGGDLQTAQVAVACRSAIRNGTPMSLPEMQKLLDDWQRTRNPRTCPHGRPIYLSLDESSLSRFFRRHWVIGKSHGI | failed |
| MSEPSLDKSSFNQPSWRNALAGLQMLFVAFGALVLMPLITGLDPSVALFTAGIGTILFQFITKQQVPLFLASSFVFIAPIAYSVQTWGIAVAMGSLFVTGLVYVLIASVVAVRGAGFLHKLMPPVVTGPIIMVIGLSLAPIAVNMAMGKAGDGSAVLFPYADSLIVSMSALITTLLVATLGKGIFRLIPIMAGVFVGYIMASVMGMVSTEAIANSEWFAIPNFVTPEFNLTAILFMLPVAIAPAIEHVGDIIAIGSVTGKDYTKSPGLHRTLLGDGLATSLASLFGGPPNTTYSEVTGAVMLTKMFNPKIMLWAAAFAIGLAFVAKFGLALQTIPAPVMGGILILLFGSIAGVGMNILIKAQVDLAEQRNLVIVSTTLVFGIGGMAIGNDDFSLTGISLCGLVAIALNAIIPQTQLEEESLVQEETIVEDLVEHAKGKEIN | failed |
| MLSIIVPSYNRKAEVPALLESLTQQTSSNFEVIIVDDCSKERVVVEQSYSFPVTVIRNETNQGAAESRNVGARTSKGDWLLFLDDDDCFMPEKCEKVLQVIEQNPNINFIYHPAKCEMVNEGFTYVTQPIEPQEISTERILLANKIGGMPMIAIKKEMFLKIGGLSTALRSLEDYDFLLKLLQEPSFTPYKINEPLTYCTFHTKRSSVSTDTTNTQKAIDYIREHYVKTVEQARNFDINASYILAYPHIMNLSRKAAKYYFDIFKKTKSIKQFIITLVILISPKLAINLKRLGK | failed |
| GVDRWPEYYPETGRDIWIDSVMRQEYLWYRDMPSPAAPDYFQKPEAFLKKAVASMDNGFSKIDSLLDEPIPSYGFDYTLYKVLDNDTAYNALISYVVPGSPAEEAGLQRGHWIMMMNGDYITKKVESELLQGSTRQLQIGVYKEVVGEDGEVTGGVVPIGETTMPASRSLVDKPVHRFEIIPWNGKKVGYLMYNEFKAGPTTDSQAYNDDLRRAFRDFQTGGVNEFVLDLRYNTGGSLDCAQLLCTMLAPADKMNQLLALLRYSDKRVEANQDLTFNPELIQSGANLNLSTVYVLTTNATRGAAEMVINCLNPYMKVVLIGTKTAGEYVATKPFVHPTDRFILNLVVCNVYNAEEKSDYATGFKPTYEYNEDSYLSTYLPFGNTNETLLNAALKIMSGITDK | not failed |
| MKVIILGSGSYSGTPKPLCTCENCTRARINPAFRRTRFSVYIEGGILIDPGPDLHYHLEKLNKEVETILITHAHFDHIFGLPDAQVFKKLTIASNPLGIKVARSLAMLAFNSEAPLGNDWDYVELKFWNEYKVNGVKVIHFPVVHSIEMAGGFLIERKNKTVAITGDTGPEIIRDSEVIDLIKGSDLLISEMTHKESIPKTHLGVNDAIELAKIVKAEQTVFAHISHSNYPQEILEKKVREAKISGIVARDFTIIEI | failed |
| MVVAVYPGTFDPLTRGHEDLVRRASSIFDTLVVGVADSRAKKPFFSLEERLKIANEVLGHYPNVKVMGFTGLLKDFVRANDARVIVRGLRAVSDFEYEFQMAGMNRYLLPDVETMFMTPSDQYQFISGTIVREIAQLGGDVSKFVFPSVEKWLTEKVAAMAQGPSA | not failed |
| MFCEKAMELIRELHRAPEGQLPAFNEDGLRQVLEEMKALYEQNQSDVNEAKSGGRSDLIPTIKFRHCSLLRNRRCTVAYLYDRLLRIRALRWEYGSILPNALRFHMAAEEMEWFNNYKRSLATYMRSLGGDEGLDITQDMKPPKSLYIEVRCLKDYGEFEVDDGTSVLLKKNSQHFLPRWKCEQLIRQGVLEHILS | failed |
| RTSYLEFNQRDKNSPYNNVNLRKAISAAIDRNALVDKILGDGSVVATGLIPEGMSYSPTDDTDFADENKKIVEYSPEKAKEYWAKAKKELGITTLKMDIVADDVDSTKKLAEYIQGTLKDTLEGIDVTVSPVPFSVRIDRGSRGDFETILGGWAADYADPSSFLDLFVTGNNYNRGRFSSKAYDELIEASATRDASDPEKRWEDMVKAEKLLIGEETALAPLYQKA | failed |
